Data: patent US9012617

Assays:
EphB2 = assay: cell-based or functional assay
EphA4 = assay: cell-based or functional assay

One phase association Tau (GPhosEphB ratio fluorescence after Ephrin addition) (EphB2)	One phase association Tau (GPhosEphA ratio fluorescence after Ephrin addition) (EphA4)	Substance
9.78		pre-clustered EphrinB2-FC (Fc fusion)
	9.6	pre-clustered EphrinA1-FC (Fc fusion)
